Molecular target: T1, Cra (Escherichia coli O157:H7 (EHEC) 86-24) (UniProt P0ACP3)
T1 sequence: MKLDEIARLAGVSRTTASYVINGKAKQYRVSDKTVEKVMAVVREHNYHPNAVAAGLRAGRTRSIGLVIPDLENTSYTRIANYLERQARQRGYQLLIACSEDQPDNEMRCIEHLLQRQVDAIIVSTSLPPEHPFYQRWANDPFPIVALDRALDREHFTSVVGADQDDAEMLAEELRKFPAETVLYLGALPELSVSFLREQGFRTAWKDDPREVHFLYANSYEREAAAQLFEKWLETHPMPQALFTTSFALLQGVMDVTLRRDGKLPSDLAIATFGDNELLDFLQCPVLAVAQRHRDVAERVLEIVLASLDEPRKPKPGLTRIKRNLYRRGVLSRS
Assay: competition

For “TCGGATCCCATGTGCTGCGACTGCGTTCGCTTACCCCAATCACTTACTTATGTAAGCTCCTGGGGATTCACTCGCTTGCCGCCTTCCTGTAACTCGAATTAAGTAGAGTATAGTGAAACGGTTCAGCTTGGTTTTTATTCTGTTTTATTTGTTTATGCAATGAGATCTATCTTATAAAGAGAAACGCTTAACTAAATGGAAATGCGAATTCGA (double strand) [ler probe aa (-450 to -255)]”, the binding was “binds”.
